Assay [1] has as its target Sbi-E (amino acids 28–266) (Staphylococcus aureus (entry printed for strain Newman)) (UniProt A6QJQ7).
The target of assay [2] is Sbi-III-IV (amino acids 150–266) (Staphylococcus aureus (entry printed for strain Newman)) (UniProt A6QJQ7).

“complement Factor H (from UniProt P08603 19-1231) (natural protein)”: in assay [1], the inhibition of alternative pathway-mediated lyses of rabbit erythrocytes by human serum, increasing amounts of Sbi-E amounted to 600 ng. Moreover, the inhibition of alternative pathway-mediated lyses of rabbit erythrocytes by human serum, increasing amounts of Sbi-III/IV in assay [2] stood at 600 ng.

The values are drawn from PMC2602735.
